Several values for one entry are separate records, joined by “and”; a condition that tells them apart may be missing. Equal entries are not always repeated.
Assays:
[1] = molecular target: Zot binding sites (surface receptor) on human monocytes/macrophages (CD14+) (human)
[2] = molecular target: Zot binding sites on human T lymphocytes (CD3+) (human); experiment: real-time flow cytometry at 37°C, Zot-FITC 40 µg/ml, CD3 gate
[3] = molecular target: Zot binding sites (surface receptor) on human monocytes/macrophages (CD14+) (human); experiment: 4-color flow cytometry, 40 µg/ml Zot-FITC, 30 min at 37°C, CD14+ gate
[4] = molecular target: Zot binding sites (surface receptor) on human monocytes/macrophages (CD14+) (human); experiment: flow cytometry, MESF calibration, several volunteers
[5] = molecular target: Zot binding sites on human T lymphocytes (CD3+) (human); experiment: as above
[6] = molecular target: Zot binding sites (surface receptor) on human monocytes/macrophages (CD14+) (human); experiment: real-time flow cytometry at 37°C, Zot-FITC 40 µg/ml, CD14 gate
[7] = molecular target: Zot binding sites (surface receptor) on human monocytes/macrophages (CD14+) (human); experiment: flow cytometry, MFI converted with Quantum 26 MESF kit, saturation conditions
[8] = molecular target: Zot binding sites on human T lymphocytes (CD3+) (human); experiment: as above
[9] = molecular target: Zot binding sites (surface receptor) on human monocytes/macrophages (CD14+) (human); experiment: flow cytometry, increasing concentrations of Zot-FITC on human PBMC
[10] = molecular target: Zot binding sites on human T lymphocytes (CD3+) (human); experiment: as above
[11] = molecular target: Zot binding sites (surface receptor) on human monocytes/macrophages (CD14+) (human); experiment: flow cytometry; […] (10 µl); […]
[12] = molecular target: Zot binding sites on human T lymphocytes (CD3+) (human); experiment: flow cytometry; […] (10 µl); […]

Substance: 6xHis-Zot fusion protein (purified Zot, unlabeled) (from UniProt P38442 1-399) (ligand)
- percent suppression of Zot-FITC mean fluorescence intensity [1]: 24% and 43%

Substance: Zot-FITC (6xHis-Zot fusion protein conjugated to fluorescein isothiocyanate, Examples 4-7) (from UniProt P38442 1-399) (ligand)
- time to reach equilibrium [2]: < 2 min
- fold binding against T or B lymphocytes [3]: 5 fold and 8 fold
- Zot binding sites/cell (mean of several volunteers) [4]: 105000 sites/cell
- Zot binding sites/cell (mean of several volunteers) [5]: 10700 sites/cell
- time to reach equilibrium [6]: < 2 min
- Zot-binding sites/cell [7]: 106000 sites/cell
- Zot-binding sites/cell [8]: 9000 sites/cell
- concentration at which saturation is reached [9]: 0.5 pM
- concentration at which saturation is reached [10]: 0.5 pM

Substance: purified Zot (cleaved from MBP-Zot with Factor Xa, Example 1) (from UniProt P38442 9-399) (ligand)
- percent decrease of Zot-FITC binding [11]: 33%
- percent decrease of Zot-FITC binding [12]: 33%

Reference: patent EP1113813B1
